B1: chR007 Fc24 (antibody, human IgG1, kappa)
heavy: EVKLEESGGGLVQPGGSMKLSCVASGFTFSNYWMNWVRQSPEKGLEWVAEIRLKSNNYATHYAESVKGRFTISRDDSRSSVYLQMNNLRAEDTGIYYCTRDWEFAYWGQGTLVTVSSASTKGPSVFPLAPSSKSTSGGTAALGCLVKDYFPEPVTVSWNSGALTSGVHTFPAVLQSSGLYSLSSVVTVPSSSLGTQTYICNVNHKPSNTKVDKKVEPKSCDKTHTCPPCPAPELLGGPSVFLLPPKPKDTLMISRTPEVTCVVVDVSHEDPEVKFNWYVDGVEVHNAKTKPPEEQYNSTLRVVSLLTVLHQDWLNGKEYKCKVSNAALPAPIAKTISKAKGQPREPQVYTLPPSRDELTKNQVSLTCLVKGFYPSDIAVEWESNGQPENNYKTTPLVLDSDGSFFLYSKLTVDKSRWQQGNVFSCSVMHEALHNHYTQKSLSLSPGK
light: DIVLTQSPASLAVSLGQRATISCRTSESVDNYGSSSMNWFQQKPGQPPKLLIYRASNLDSGIPARFSGSGSRSDFTLTINPVEADDVATYYCQQSNEDLPYTFGGGTKLEIKRTVAAPSVFIFPPSDEQLKSGTASVVCLLNNFYPREAKVQWKVDNALQSGNSQESVTEQDSKDSTYSLSSTLTLSKADYEKHKVYACEVTHQGLSSPVTKSFNRGEC
notes: also called chimeric chR007 Fc24
B2: chR007 Fc0 (antibody, human IgG1, kappa)
heavy: not shown
light: B1 light
notes: Chimeric anti-CD5 IgG1 with native human IgG1 Fc; also called native chimeric MAb chR007 Fc0
B3: humanized 7Hz116 Fc24 (antibody, human IgG1, kappa, V domains shown)
VH: EVQLVESGGGLVQPGGSLKLSCAASGFTFSNYWMHWVRQASGKGLEWVAEIRSKANSYATAYAASVKGRFTISRDDSKNTAYLQMNSLKTEDTAVYYCTRDWEFAYWGQGTLVTVSS
VL: DIVMTQSPDSLAVSLGERATINCKSSQSVDNYGSSSLAWYQQKPGQPPKLLIYRASNLDSGVPDRFSGSGSGTDFTLTISSVQAEDVAVYYCQQSNEDLPYTFGQGTKLEIKR

Columns and labels:
human Clq [1] = target: T1, human Clq (human, UniProt P02745 23-245; P02746 28-253; P02747 29-245); experiment: ELISA, MAb coated on plate, human Clq in solution, detected with anti-human Clq peroxidase conjugate
T1 construct: also called Clq complement; C1q
Protocol: (§1) The Binding of Human Clq to MAbs was assessed by an ELISA binding assay. The 96-well plates (Nunc) were coated overnight at 4° C. with varying MAb concentrations. After washing, the plates were blocked with PBS-5% BSA for 1 h, and incubated for 1 h with 0.2 μg/ml of recombinant human Clq (Abd Serotec) or 2.5 μl of natural human complement (Sigma). Then, 100 μl of a 1/500 dilution of sheep anti-human Clq peroxidase-conjugated Ab (Abd Serotec) added and incubated for 1 h. The plates were developed with 100 μl per well of TMB substrate (Uptima Interchim). After H₂SO₄ addition, the OD was measured at 450 nm/630 nmusing a MRX II microplate reader.

human Clq [2] = target: T1, human Clq; experiment: ELISA, MAb coated on plate, human Clq in solution, detected with anti-human Clq peroxidase conjugate; chR007 Fc0 is the weaker reference
Protocol: as §1

T1 sequence (P02745 23-245 limits assumed, chain 1 of 3): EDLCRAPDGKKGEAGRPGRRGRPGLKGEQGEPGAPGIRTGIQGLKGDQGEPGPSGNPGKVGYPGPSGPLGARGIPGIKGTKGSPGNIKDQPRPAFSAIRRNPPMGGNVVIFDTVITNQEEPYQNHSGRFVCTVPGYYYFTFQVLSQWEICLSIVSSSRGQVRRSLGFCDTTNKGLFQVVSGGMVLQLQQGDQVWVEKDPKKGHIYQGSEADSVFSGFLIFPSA
T1 sequence (P02746 28-253 limits assumed, chain 2 of 3): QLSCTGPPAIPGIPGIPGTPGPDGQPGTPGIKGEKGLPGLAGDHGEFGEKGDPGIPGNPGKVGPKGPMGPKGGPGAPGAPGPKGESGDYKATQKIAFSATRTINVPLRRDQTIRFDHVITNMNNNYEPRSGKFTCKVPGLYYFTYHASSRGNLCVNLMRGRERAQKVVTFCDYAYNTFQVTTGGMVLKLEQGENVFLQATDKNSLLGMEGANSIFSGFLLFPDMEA
T1 sequence (P02747 29-245 limits assumed, chain 3 of 3): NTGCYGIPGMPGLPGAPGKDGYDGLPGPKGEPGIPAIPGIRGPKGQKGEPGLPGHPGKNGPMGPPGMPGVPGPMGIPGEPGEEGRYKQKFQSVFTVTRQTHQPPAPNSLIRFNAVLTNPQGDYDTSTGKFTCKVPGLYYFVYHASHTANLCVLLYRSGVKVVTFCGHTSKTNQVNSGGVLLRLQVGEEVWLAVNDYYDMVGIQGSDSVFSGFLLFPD

Row | Binder | binding result (human Clq [1]) | binding result (human Clq [2])
1 | B1 | binds | –
2 | B2 | – | binds
3 | B3 | binds | –
